Experiment: soluble on expression in E. coli; label from the status in PepcDB or PDB records

Q: With “MPTPPVSVLVAQMGEGPAPLYARVKQMIIQQIDNGSWPPHHRVPSESELVNELGFSRMTINRALRELTAEGLLVRMQGVGTFVAEPKGRSALFEVNNIADEIAARGHQHSCQVITLAEEAAGSERALALDMREGQRVFHSLIVHFENGVPVQIEDRYVNAAIAPDYLKQDFTRQTPYAYLSQVAPLTEGEHVVEAILAEPEECTLLQIDRGEPCLLIRRRTWSGRQPVTAARLIHPGSRHRLEGRFSK” as the sequence, how does the “soluble on expression in E. coli” value read?
A: not soluble

Q: With “MPELKVVVSIKQVPDVDELRIDPVTNNLVREGVPAVINPPDLHAIEEAVRLKERYGAKTIVITMGPPQADSALREALAMGIDEAYLISDRAMAGADTWATSYTISKAVQKLGGADLILFGRRAVDGETEQVGPQTGKWLGLPVIGYVSEIKSLEKDKIVVTRTTEFDEEVIEAPVPVVLTILEVANKPRQPDILSLIKAKTAKVTVWNKDDIKAEPNKIGLAGSPTKVIKVQPPPKTRKAEIIDGKKDVEKAAKWFLDKIFESLKE” as the sequence, how does the “soluble on expression in E. coli” value read?
A: not soluble

Q: With “MSLKNSMTILDAIRALDDPTRLRIMRLLASMELAVGEVAQVLGQSQPRVSRHIKILCDSGLAERRKEGAWVFLRSSIGEGAESPLASALARLLAVAEHEDTAFGRRCSEDRQHLDAIRSSRESHALEWFARHADEWDELRSLHIADGPVEAALTEMLLALSGDGSLGRLLDVGTGTGRIAELFAPNAAHVVAFDKSPDMLRIARARLQHLPADAVELVQGDFAQLPFAARSFDTVLFHQVLHYAQAPEAVLAGAARVTAPGGRVAIVDFAAHEREDLRQTHAHARLGFSDAQIETMLLDAGFIPHETRALAGHELVVKLWTAVRREDSVTQLEPRQKSSSGKTEGHHHHHH” as the sequence, how does the “soluble on expression in E. coli” value read?
A: soluble

Q: For “SSSLKIASTQEARQYFDTDRVVVDAVGSDFTDVGAVIAMDYETDVIDAADATKFGIPVFAVTKDAQAISADELKKIFHIIDLENKFDATVNAREIETAVNNYEDSILPPFFKSLKEYVSRYLIQFDCPGHQGGQYYRKHPAGREFYDFFGETVFRADLCNADVALGDLLIHEGPAVAAEKHAARVYNADKTYFVLGGSSNANNTVTSALVSNGDLVLFDRNNHKSVYNSALAMAGGRPVYLQTNRNPYGFIGGIYDSDFDEKKIRELAAKVDPERAKWKRPFRLAVIQLGTYDGTIYNAHEVVKRIGHLCDYIEFDSAWVGYEQFIPMMRNSSPLLIDDLGPEDPGIIVVQSVHKQQAGFSQTSQIHKKDSHIKGQLRYCDHKHFNNSFNLFMSTSPFYPMYAALDVNAAMQEGEAGRKLWHDLLITTIEARKKLIKAGSMFRPFVPPVVNGKKWEDGDTEDMANNIDYWRFEKGAKWHAYEGYGDNQYYVDPNKFMLTTPGINPETGDYEDFGVPATIVANYLRDHGIIPEKSDLNSILFLMTPAETPAKMNNLITQLLQLQRLIEEDAPLKQVLPSIYAANEERYNGYTIRELCQELHDFYKNNNTFTYQKRLFLREFFPEQGMLPYEARQEFIRNHNKLVPLNKIEGEIALEGALPYPPGVFCVAPGEKWSETAVKYFTILQDGINNFPGFAPEIQGVYFKQEGDKVVAYGEVYDAEVAKNDDRYNN”, which “soluble on expression in E. coli” value is on record?
A: soluble

Q: With “GSPQAHPVPKDARITHSSGQSFEQMRQECLQRGTLFEDADFPASNSSLFYSERPQIPFVWKRPGEIVKNPEFILGGATRTDICQGELGDCWLLAAIASLTLNQKALARVIPQDQSFGPGYAGIFHFQFWQHSEWLDVVIDDRLPTFRDRLVFLHSADHNEFWSALLEKAYAKLNGSYEALKGGSAIEAMEDFTGGVAETFQTKEAPENFYEILEKALKRGSLLGCFIDTRSAAESEARTPFGLIKGHAYSVTGIDQVSFRGQRIELIRIRNPWGQVEWNGSWSDSSPEWRSVGPAEQKRLCHTALDDGEFWMAFKDFKAHFDKVEICNLTPDA” as the sequence, how does the “soluble on expression in E. coli” value read?
A: soluble

Q: With “MGSDKIHHHHHHMIKLFIVACGYIIYKLGRYCKENEYYMASLLMLQYHKSLSAERQQILYTNFTYYKKLSEKKKLEFEKRVQHFLTNKSFIASDGFEITEQMKVMIAATAVQILFCRKAYYLSSFDFIELFEEVPVHVEVMRKKRIIQISWNEFKKGFDSLIDGYNPGLKIMAMALDLEHKFGEKSLFSQQTYKAFQKIYKQEAEKYILSGKSKYDHYNKVDRTEYFAVAVEYFFERPEHFNVNQPAMYLALSKLLRQDPLGMYTYKEKVFE” as the sequence, how does the “soluble on expression in E. coli” value read?
A: not soluble

Q: Which “soluble on expression in E. coli” value does the source give for “MGSDKIHHHHHHMADRASEAELIKLPVSKLTRGMFVAAIENNGKVAVANAGQIKSRETIAKLVKSGIHHVWVDAERSSDESGLKPKSAQGSAAPAAGAVRPSRANRDLRQTQAKKLLHEAKELIRKVLSETFEGKAIEVKPFEALADNMIESIMLDDDALKCVSALRDKDAYLLEHSVNVAFLLVTFGKYLKLDRETLKQMAVGGVLHDIGKIKVDNKILHKPGKLTPEEFEHMKLHQFYAMDIMSEASALSQISKDVCLMHHEKLDGRGYPRGLKGDEIPLHGRMSCIVDIFDALTATRCYKEAMSPAAAFKILLSLTPFHLDTDLVYEFIRCIGVYPVGSLVELSDGRVGIVWESKDRDALSPVVKCFYSLKHKRYTEVNFVDLLKSDLNIERGVSPSSLDVDPKPFY” here?
A: not soluble

Q: For “MGSDKIHHHHHHMERVALACWDDFEAQLKKLDEEANAVEDARGDVRASGYLFRGHGDADYPLQTSLERFFARPLSLADYYRLALVAKPRLEAFTGRRWELPSQEAYAAWLEGAAGSTLDDYPAYDYLAYLRHHGFPSPLLDWTQSPYVAAFFAFRYPLPGAKAVAVYAYRDAPDAKTASSGAARIHRQGPYVSSDKRHFLQQSQYTFCTRTDDAGVVGYIGHEQAFRDVSPADRIRKFLIPLSARRQALMQLNRMNINAFSLFGSEDSLVETIAISDIYLRGGDL”, which “soluble on expression in E. coli” value is on record?
A: not soluble

Q: Which “soluble on expression in E. coli” value does the source give for “MTLLGTALRPAATRVMLLGSGELGKEVAIECQRLGVEVIAVDRYADAPAMHVAHRSHVINMLDGDALRRVVELEKPHYIVPEIEAIATDMLIQLEEEGLNVVPCARATKLTMNREGIRRLAAEELQLPTSTYRFADSESLFREAVADIGYPCIVKPVMSSSGKGQTFIRSAEQLAQAWKYAQQGGRAGAGRVIVEGVVKFDFEITLLTVSAVDGVHFCAPVGHRQEDGDYRESWQPQQMSPLALERAQEIARKVVLALGGYGLFGVELFVCGDEVIFSEVSPRPHDTGMVTLISQDLSEFALHVRAFLGLPVGGIRQYGPAASAVILPQLTSQNVTFDNVQNAVGADLQIRLFGKPEIDGSRRLGVALATAESVVDAIERAKHAAGQVKVQG” here?
A: soluble

Q: Which “soluble on expression in E. coli” value does the source give for “LVRSGRNITMQIIGYMTSHRKQHLEATDVAREFGYGREHFCRLFRKATGKTFKEFLTDLRLDDACRKLSGSSASIASIARECGFPDTRALQTAVQRKYGIRAQEYRERYENR” here?
A: soluble

Q: With “MNPLLFNDRTLKGSGVLARVTPTGTQYVASVVAAAFSSHFADIKPPKERKDHQLTTISTVTLRRLMLETLQLDKQLVTTTTSDGLLRITVQNISVSSSAVLSGELREIKLQDNVTFRTANLRIDTAIRIMKNAGGNPALKMESCKIVTQGIKLVTKPMDPRNGKSLADAIANDANTMFSDLICSKIDHIVSNRVNQRFALLSSRISLEDSKNFDIVKIIMQAEERLKRLVRQNMLRSNKTIRRNVHAHNARRVSRDPVRGKRQADEDKFHLILNSFNFSRADSLMLDYSMLSPPSLTSRGIELQTSGEVFQKGHVTPFGAGPIFLPRIPNPSQMLQIVVSDFVPNSLMFHGHRIKLFDTRIDWMTPQFGPVMRTTCDLSTGSLFCIGDLFPALREMLPDRNVAFLFTTLRAPAVIMQPEEKGGIHFSLRGLIRLVSDRNEPIGEMEIRIEALMKMKLTSKSVKGKVTIEEIQFTSRSPRILLQEELDDAGFLSREILQRMVNDILRQGIPIPIHPLFKLVKPKLTLLSRSMLLETNFLLNEHIIAQLTAEALVA” as the sequence, how does the “soluble on expression in E. coli” value read?
A: not soluble

Q: Which “soluble on expression in E. coli” value does the source give for “MEQRTAEWFQARLGKVTASNIYNVLSKTAKGTPTSKYEEYKIKLMTERLTEEISQSYLTPAMQWGIEHEEDALKEYAIIYDTEVIKCGFIQHPTIEMAGASPDGLIGEEGLVEVKCPHSTKHLRFYMDGTIKPEYKAQMQFQMACTGRQWCDFVSYDPHFVGRSLRLRMKIKRIHRDEKQIEQINQAVEIFLEEIEQEMKQILTQAA” here?
A: not soluble

Q: With “MKKIGIIGAGGIARAHATALSTIKNAELVGVYDINQQNAESFVKTFGGKSFENVDELIDASEGLIVASPNFCHKEHALQALGKHKHVLCEKPMAISLEEASIMKDTAERLSVRASMGFNYRYLSYVNILKSLIINNELGNILSIKVHFKKNSALRRKKFTWRDDANSKKTSGSLGDLGIHLIDMVWYLFESDFITESVRAKMNTNVKTKEDKQVLVDDYAEIYGQLRNKVFVNIITSKCSVPEDCGFSIEVVGHKKEFKYHTGNPHVYKLIDGLNVVDCPVPQSLLNDPPNEFYGWADSFRSELINWIASTQNDWVEIPSFSDGFRSQEVLEMFFEKDSNSQPMSVSAVNLEHHHHHH” as the sequence, how does the “soluble on expression in E. coli” value read?
A: not soluble

Q: For “MGSDKIHHHHHHMSKFWEKEFTCPFCGTKFKKKMVFFDSIKIKARDIDLKPVFEDVNPMFYEVVTCPNCYFSAFDKDFETITIKGEETERKLKKLLEEAKKKVELKNVENHVEAIKRYALSGMVYSVLNQRKKVAISYLKIAWLFRELGKSEEEKRYLERALKEFESHYKYDYYEESDEPMILFYLGVLNQILGNRKEAARWYELLLRKYDGKSLYAKVGRERWQELRRS”, which “soluble on expression in E. coli” value is on record?
A: not soluble

Q: For “MGSDKIHHHHHHMIHVAHHYEMRHPTADIQETSMSSAQEERLRFIDFRLMFLGDVSRQDLTDRFGISEPAATRDLTQYRERCAANMEYSHVQRAYLRNYNFAPLYDHESTEALAMIAHGHLALPRRERKPLLRCDLPIQLDSPDSMVVSTITRAINHQHVISIDYRSHSSGETRRQIVPFALVDNGLRWHIRAYDRRRLRFSDFVISRISNPTIEESVVLTHERWEHDIQWNRIVELELVPHPKRPHPETTLFEYGMVNGISRLRVRAAVAGYFLRRWNVDCSPDHCLEGNEYQLWLKNRETLYGVETLEIAPGYL”, which “soluble on expression in E. coli” value is on record?
A: not soluble

Q: For “MGSDKIHHHHHHAQKKTQKTYIPWSNGKLVVSEEGRYLKHENGTPFFWLGETGWLLPERLNRDEAEYYLEQCKRRGYNVIQVQTLNNVPSMNIYGQYSMTDGYNFKNINQKGVYGYWDHMDYIIRTAAKKGLYIGMVCIWGSPVSHGEMNVDQAKAYGKFLAERYKDEPNIIWFIGGDIRGDVKTAEWEALATSIKAIDKNHLMTFHPRGRTTSATWFNNAPWLDFNMFQSGHRRYGQRFGDGDYPIEENTEEDNWRFVERSMAMKPMKPVIDGEPIYEEIPHGLHDENELLWKDYDVRRYAYWSVFAGSFGHTYGHNSIMQFIKPGVGGAYGAKKPWYDALNDPGYNQMKYLKNLMLTFPFFERVPDQSVIAGQNGERYDRAIATRGNDYLMVYNYTGRPMEVDFSKISGAKKNAWWYTTKDGKLEYIGEFDNGVHKFQHDSGYSSGNDHVLIVVDSSKDYVKKDCYQIDTHE”, which “soluble on expression in E. coli” value is on record?
A: not soluble

Q: With “MFVAREHELQVLEKLFTSDSFEMVVLYGRRRVGKTALIDEFVKDKRVLYFTAIQQSAKMNLEDFSRAALSFFGMPDSTPSFGGWSDALSFVAERAAQTDERMVFVFDEFPYAAAAEPALPSMLQIAIDHGFLATKVTMILSGSNEGFMENDVLGRKSPLYGRRTAQIRLLPFDYADAAKFLTNTSPQELVQYYATFGGTPYYLARIQEADGFESNVLRLMFDNLGVLREEPMMLLRQELREPASYYSILQSIAGGNSSPKLIAEHAGVGSDSIGAYLKTLVDLRLIERKVPFGEDPSKSRKGMYVVSDPFFAYWFRFVGRNMSILDGNISEEVTSRLAFGPAFDTYVGQQFETICLQWLIRNNAMGNLPFVATQFGKWWGNDPIAHEQTDIDVIAADSLDKTILFGECKWRNSFNETEAIEKLHQRAGLVRGYQAGNAWLMLFTKNPVSESTRTRYMDDERMVFVSAEELYTALEHHHHHH” as the sequence, how does the “soluble on expression in E. coli” value read?
A: not soluble

Reference: the DeepSol protein solubility set
